These results are taken from article PMC8248823, “Phosphorus and sulfur SAD phasing of the nucleic acid-bound DNA-binding domain of interferon regulatory factor 4”.

This data set deals with T1, IRF4 DBD (human, UniProt Q15306 20-139).
T1 sequence: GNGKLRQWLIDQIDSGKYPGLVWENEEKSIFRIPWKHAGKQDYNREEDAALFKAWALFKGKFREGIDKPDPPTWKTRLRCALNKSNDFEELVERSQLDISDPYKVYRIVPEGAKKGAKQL
As to the kind of experiment: X-ray crystallography (native P/S SAD); three IRF4 DBD molecules on one ISRE; DNA:protein 1.2:1 mixed before crystallization; Crystallization complex: protein in 20 mM Tris-HCl pH 8, 500 mM NaCl, 0.5 mM TCEP (gel-filtration buffer); DNA:protein 1.2:1, 1 h at 277 K; crystallization conditions not in material. Particulars: protein: recombinant; tags: N-terminal 6xHis; chain copies: 3; 5' overhang 1 nt on each strand (A / T), 20 bp duplex.

B1: ISRE 21-mer (dsDNA)
DNA 1: AATAAAAGAAACCGAAAGTAA
DNA 2: TTTACTTTCGGTTTCTTTTAT
Turning to B1, the binding result is reported as “binds”.
